Test results published in article PMC5389675.

Key:
Assay in all cases: EMSA
ETV4 337-484 = ETV4 337-484 (Homo sapiens, UniProt P43268 337-484)
ETV4 L430M = ETV4 L430M (Homo sapiens, UniProt P43268 1-484, L430M)
ETV4 FL K260ac = ETV4 FL K260ac (Homo sapiens, UniProt P43268 1-484)
ETV4 FL L430A = ETV4 FL L430A (Homo sapiens, UniProt P43268 1-484, L430A)
ETV4 FL K226ac = ETV4 FL K226ac (Homo sapiens, UniProt P43268 1-484)
ETV4 FL I407A/L430A = ETV4 FL I407A/L430A (Homo sapiens, UniProt P43268 1-484, I407A;L430A)
ETV4 FL I407A/L430A, sequence (P43268 whole entry I407A/L430A): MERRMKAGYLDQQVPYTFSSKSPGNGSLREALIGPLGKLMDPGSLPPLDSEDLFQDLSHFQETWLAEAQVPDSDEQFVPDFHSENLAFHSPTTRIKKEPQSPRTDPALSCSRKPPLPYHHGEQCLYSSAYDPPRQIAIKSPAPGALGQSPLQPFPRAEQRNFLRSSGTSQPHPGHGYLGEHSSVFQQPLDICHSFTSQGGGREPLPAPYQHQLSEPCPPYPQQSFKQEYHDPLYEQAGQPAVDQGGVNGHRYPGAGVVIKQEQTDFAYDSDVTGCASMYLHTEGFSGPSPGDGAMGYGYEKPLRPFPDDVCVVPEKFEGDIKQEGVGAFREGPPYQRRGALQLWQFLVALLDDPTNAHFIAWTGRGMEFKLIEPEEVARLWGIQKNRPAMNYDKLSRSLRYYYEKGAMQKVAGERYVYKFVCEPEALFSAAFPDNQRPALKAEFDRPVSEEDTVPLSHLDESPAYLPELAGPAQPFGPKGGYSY

ETV4 337-436 E404K = target: T1, ETV4 337-436 E404K (Homo sapiens, UniProt P43268 337-436, E404K)
T1 sequence: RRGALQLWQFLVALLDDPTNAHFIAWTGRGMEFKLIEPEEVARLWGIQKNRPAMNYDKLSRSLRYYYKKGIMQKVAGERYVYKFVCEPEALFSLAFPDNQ

ETV4 FL E404K = ETV4 FL E404K (Homo sapiens, UniProt P43268 1-484, E404K)
ETV4 FL E404K, sequence (P43268 whole entry E404K): as the sequence (P43268 whole entry I407A/L430A) above, with E404K, A407I, A430L counted along it

ETV4 337-436 E425K = ETV4 337-436 E425K (Homo sapiens, UniProt P43268 337-436, E425K)
ETV4 337-436 E423K = ETV4 337-436 E423K (Homo sapiens, UniProt P43268 337-436, E423K)
ETV4 FL E423K = ETV4 FL E423K (Homo sapiens, UniProt P43268 1-484, E423K)
ETV4 FL E423K, sequence (P43268 whole entry E423K): as the sequence (P43268 whole entry I407A/L430A) above, with A407I, E423K, A430L counted along it

ETV4 FL F428A/F432A = ETV4 FL F428A/F432A (Homo sapiens, UniProt P43268 1-484, F428A;F432A)
ETV4 FL F428A/F432A, sequence (P43268 whole entry F428A/F432A): as the sequence (P43268 whole entry I407A/L430A) above, with A407I, F428A, A430L, F432A counted along it

ETV4 337-436 F428A/F432A = ETV4 337-436 F428A/F432A (Homo sapiens, UniProt P43268 337-436, F428A;F432A)
ETV4 FL E425K = ETV4 FL E425K (Homo sapiens, UniProt P43268 1-484, E425K)
ETV4 FL E425K, sequence (P43268 whole entry E425K): as the sequence (P43268 whole entry I407A/L430A) above, with A407I, E425K, A430L counted along it

ETV4 FL K226ac, sequence (P43268 whole entry): as the sequence (P43268 whole entry I407A/L430A) above, with A407I, A430L counted along it
ETV4 FL K260ac, sequence (P43268 whole entry): as the sequence (P43268 whole entry I407A/L430A) above, with A407I, A430L counted along it
ETV4 337-484, sequence (P43268 337-484): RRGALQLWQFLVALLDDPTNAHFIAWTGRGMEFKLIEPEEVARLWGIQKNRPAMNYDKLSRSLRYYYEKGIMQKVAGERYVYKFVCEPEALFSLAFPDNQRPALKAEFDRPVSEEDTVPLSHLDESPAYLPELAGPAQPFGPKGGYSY
ETV4 L430M, sequence (P43268 whole entry L430M): as the sequence (P43268 whole entry I407A/L430A) above, with A407I, A430M counted along it
ETV4 FL L430A, sequence (P43268 whole entry L430A): as the sequence (P43268 whole entry I407A/L430A) above, with A407I counted along it

B1: 27-mer consensus ETS duplex (dsDNA)
DNA 1: TCGACGGCCAAGCCGGAAGTGAGTGCC
DNA 2: TCGAGGCACTCACTTCCGGCTTGGCCG
ETV4 337-484
  Kd: 0.11 ± 0.02 nM
ETV4 L430M
  binding result: binds
ETV4 FL K260ac
  Kd: 0.51 ± 0.03 nM
ETV4 FL L430A
  binding result: binds
ETV4 FL K226ac
  Kd: 0.3 ± 0.06 nM
ETV4 FL I407A/L430A
  binding result: binds
ETV4 337-436 E404K
  binding result: binds
ETV4 FL E404K
  binding result: binds
ETV4 337-436 E425K
  binding result: binds
ETV4 337-436 E423K
  binding result: binds
ETV4 FL E423K
  binding result: binds
ETV4 FL F428A/F432A
  binding result: binds
ETV4 337-436 F428A/F432A
  binding result: binds
ETV4 FL E425K
  binding result: binds
